# Measured values as given in PMC6048764, “Myricetin antagonizes semen-derived enhancer of viral infection (SEVI) formation and influences its infection-enhancing activity” (Retrovirology, 2018).
# B1: wild-type PAP257–273 [human] / itself (parent)
# chain: RLQGGVLVNEILNHMKR
# Variants of: B1
# Experiment: ThT assay (amyloid fibril formation, self-assembly)
# Details: with itself; peptide 3 mg/ml, agitated at 1400 rpm at 37 °C for 48 h; parent: 5.5e+03; read off a plot
row,response,Variant
1,11000,chain 1 L12A
2,5100,chain 1 Q3A
3,1400,chain 1 M15A
4,200,chain 1 V8A
5,8300,chain 1 R17A
6,7800,chain 1 L2A
